# According to IntAct's records for PubMed 10677492:
# B1: Dolichyl-diphosphooligosaccharide--protein glycosyltransferase subunit OST4 (Saccharomyces cerevisiae), Q99380 (parent)
# chain: MISDEQLNSLAITFGIVMMTLIVIYHAVDSTMSPKN
# partner: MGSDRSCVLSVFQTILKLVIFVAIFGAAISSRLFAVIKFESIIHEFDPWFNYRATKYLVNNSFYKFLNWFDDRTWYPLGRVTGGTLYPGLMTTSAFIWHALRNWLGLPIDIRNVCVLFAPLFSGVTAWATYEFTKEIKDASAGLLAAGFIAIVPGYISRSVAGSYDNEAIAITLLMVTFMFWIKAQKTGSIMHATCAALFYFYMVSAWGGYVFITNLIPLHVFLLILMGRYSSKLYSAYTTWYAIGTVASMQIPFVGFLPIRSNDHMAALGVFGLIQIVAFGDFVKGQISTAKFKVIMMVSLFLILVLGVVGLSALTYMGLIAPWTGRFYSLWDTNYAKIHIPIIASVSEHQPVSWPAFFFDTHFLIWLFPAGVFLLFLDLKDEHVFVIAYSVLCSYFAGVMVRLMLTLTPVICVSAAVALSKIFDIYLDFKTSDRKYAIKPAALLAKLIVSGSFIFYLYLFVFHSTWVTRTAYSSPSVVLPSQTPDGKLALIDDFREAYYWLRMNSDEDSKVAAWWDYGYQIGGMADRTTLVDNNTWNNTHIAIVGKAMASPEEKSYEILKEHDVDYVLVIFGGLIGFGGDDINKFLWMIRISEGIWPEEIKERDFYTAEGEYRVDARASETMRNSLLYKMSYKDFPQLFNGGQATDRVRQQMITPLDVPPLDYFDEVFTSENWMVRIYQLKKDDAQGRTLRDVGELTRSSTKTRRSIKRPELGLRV
# B2: Dolichyl-diphosphooligosaccharide--protein glycosyltransferase subunit OST4 (Saccharomyces cerevisiae), Q99380 (parent)
# chain: B1 chain
# partner: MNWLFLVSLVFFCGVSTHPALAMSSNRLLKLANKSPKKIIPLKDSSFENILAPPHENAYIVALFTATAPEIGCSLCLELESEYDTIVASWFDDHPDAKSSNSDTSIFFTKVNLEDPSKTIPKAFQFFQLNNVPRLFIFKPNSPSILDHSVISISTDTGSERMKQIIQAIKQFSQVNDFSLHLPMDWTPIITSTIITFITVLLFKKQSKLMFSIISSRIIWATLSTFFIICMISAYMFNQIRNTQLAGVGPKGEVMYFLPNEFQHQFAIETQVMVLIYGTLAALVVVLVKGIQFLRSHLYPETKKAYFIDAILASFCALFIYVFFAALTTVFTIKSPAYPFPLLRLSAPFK
# Variants of: B1
# Conditions: with stt3_yeast STT3, P39007
row,Variant,effect of a mutation on the interaction
1,MISDEQLNSLAITFGIVKMTLIVIYHAVDSTMSPKN,disrupting interaction
2,MISDEQLNSLAITFGIVMMTKIVIYHAVDSTMSPKN,disrupting interaction
3,MISDEQLNSLAITFGIVMMTLIVKYHAVDSTMSPKN,disrupting interaction

# Variants of: B2
# Conditions: with ost3_yeast OST3, P48439
row,Variant,effect of a mutation on the interaction
1,MISDEQLNSLAITFGIVMMTLIVKYHAVDSTMSPKN,disrupting interaction
2,MISDEQLNSLAITFGIVMMKLIVIYHAVDSTMSPKN,disrupting interaction
3,MISDEQLNSLAITFGIVKMTLIVIYHAVDSTMSPKN,disrupting interaction
4,MISDEQLNSLAITFGIVMMTLIKIYHAVDSTMSPKN,disrupting interaction
5,MISDEQLNSLAITFGIVMMTKIVIYHAVDSTMSPKN,disrupting interaction
6,MISDEQLNSLAITFGIVMKTLIVIYHAVDSTMSPKN,disrupting interaction
